Source: publication PMC6220978, “Induced conformational changes activate the peptidoglycan synthase PBP1B” (Molecular Microbiology, 2018)

Columns and labels:
Experiment in all cases: SPR; reducing conditions: 2 mM TCEP in the SPR running buffer, immobilised PBP1B versions incubated in it for 30 min before the assay; LpoB injected from 19.5 nM to 10 μM; apparent KD
Conditions in all cases: both partners purified
PBP1B P162C/I644C = target: T1, PBP1B P162C/I644C (E. coli, UniProt P02919 46-844, P162C | I644C)
T1 construct: PBP1B, E. coli, residues 46-844, made by mutagenesis of pDML924; Disulphide bridge between C162 and C644 (no free thiol groups detected); reduced in the SPR assay with 2 mM TCEP; source: E. coli BL21(DE3), purified (membrane extract, HisTrap, thrombin, HiTrap SP ion exchange)
T1 sequence (looked up): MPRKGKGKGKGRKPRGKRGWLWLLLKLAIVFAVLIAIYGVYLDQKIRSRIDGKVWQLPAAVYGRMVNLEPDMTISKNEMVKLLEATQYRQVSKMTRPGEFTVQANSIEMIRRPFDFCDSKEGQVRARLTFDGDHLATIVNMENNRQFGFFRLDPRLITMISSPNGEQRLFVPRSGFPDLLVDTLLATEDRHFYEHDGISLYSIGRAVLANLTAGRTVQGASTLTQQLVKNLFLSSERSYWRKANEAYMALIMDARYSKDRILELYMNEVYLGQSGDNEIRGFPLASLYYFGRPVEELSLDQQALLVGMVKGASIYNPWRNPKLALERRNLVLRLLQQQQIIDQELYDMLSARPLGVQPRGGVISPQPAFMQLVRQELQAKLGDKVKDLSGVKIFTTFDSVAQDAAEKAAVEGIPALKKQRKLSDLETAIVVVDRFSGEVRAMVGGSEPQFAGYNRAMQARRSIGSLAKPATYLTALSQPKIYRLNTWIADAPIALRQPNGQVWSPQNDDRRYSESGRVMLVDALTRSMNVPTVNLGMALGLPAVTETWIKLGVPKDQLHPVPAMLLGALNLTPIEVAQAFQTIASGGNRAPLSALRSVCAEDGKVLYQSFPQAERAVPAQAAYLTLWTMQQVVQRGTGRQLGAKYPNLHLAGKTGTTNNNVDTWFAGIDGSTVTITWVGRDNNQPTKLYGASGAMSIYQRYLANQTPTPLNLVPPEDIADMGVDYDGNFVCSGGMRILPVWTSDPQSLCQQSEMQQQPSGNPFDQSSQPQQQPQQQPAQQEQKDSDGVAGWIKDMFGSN

PBP1B I202F = target: T2, PBP1B I202F (E. coli, UniProt P02919 46-844, I202F)
T2 construct: PBP1B, E. coli, residues 46-844, made by mutagenesis of pDML924; Substitution first found in the suppressor screen of Markovski et al. 2016 (LpoB bypass); source: E. coli BL21(DE3), purified (membrane extract, HisTrap, thrombin, HiTrap SP ion exchange)
T2 sequence (looked up): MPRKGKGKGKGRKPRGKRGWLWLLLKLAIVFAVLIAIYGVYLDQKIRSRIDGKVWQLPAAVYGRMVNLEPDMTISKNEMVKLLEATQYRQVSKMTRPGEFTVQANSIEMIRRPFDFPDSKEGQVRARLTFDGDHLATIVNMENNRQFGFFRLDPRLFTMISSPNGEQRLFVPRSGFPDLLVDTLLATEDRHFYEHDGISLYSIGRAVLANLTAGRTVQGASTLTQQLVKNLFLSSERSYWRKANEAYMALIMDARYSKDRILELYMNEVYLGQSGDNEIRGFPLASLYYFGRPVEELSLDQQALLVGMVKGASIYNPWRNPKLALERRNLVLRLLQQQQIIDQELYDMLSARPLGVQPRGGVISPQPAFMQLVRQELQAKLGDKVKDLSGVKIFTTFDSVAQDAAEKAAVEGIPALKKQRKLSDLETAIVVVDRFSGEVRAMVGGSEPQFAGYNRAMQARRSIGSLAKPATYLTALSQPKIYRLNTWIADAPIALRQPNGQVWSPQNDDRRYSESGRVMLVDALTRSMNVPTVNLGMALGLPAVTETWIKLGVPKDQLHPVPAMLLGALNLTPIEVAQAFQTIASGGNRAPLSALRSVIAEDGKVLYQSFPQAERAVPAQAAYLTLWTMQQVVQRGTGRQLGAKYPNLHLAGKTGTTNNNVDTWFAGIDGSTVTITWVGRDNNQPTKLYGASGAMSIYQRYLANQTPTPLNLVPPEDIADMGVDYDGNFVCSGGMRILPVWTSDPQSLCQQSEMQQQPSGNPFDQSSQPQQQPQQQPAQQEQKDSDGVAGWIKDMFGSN

PBP1B R157A = target: T3, PBP1B R157A (E. coli, UniProt P02919 46-844, R157A)
T3 construct: PBP1B, E. coli, residues 46-844, made by mutagenesis of pDML924; source: E. coli BL21(DE3), purified (membrane extract, HisTrap, thrombin, HiTrap SP ion exchange)
T3 sequence (looked up): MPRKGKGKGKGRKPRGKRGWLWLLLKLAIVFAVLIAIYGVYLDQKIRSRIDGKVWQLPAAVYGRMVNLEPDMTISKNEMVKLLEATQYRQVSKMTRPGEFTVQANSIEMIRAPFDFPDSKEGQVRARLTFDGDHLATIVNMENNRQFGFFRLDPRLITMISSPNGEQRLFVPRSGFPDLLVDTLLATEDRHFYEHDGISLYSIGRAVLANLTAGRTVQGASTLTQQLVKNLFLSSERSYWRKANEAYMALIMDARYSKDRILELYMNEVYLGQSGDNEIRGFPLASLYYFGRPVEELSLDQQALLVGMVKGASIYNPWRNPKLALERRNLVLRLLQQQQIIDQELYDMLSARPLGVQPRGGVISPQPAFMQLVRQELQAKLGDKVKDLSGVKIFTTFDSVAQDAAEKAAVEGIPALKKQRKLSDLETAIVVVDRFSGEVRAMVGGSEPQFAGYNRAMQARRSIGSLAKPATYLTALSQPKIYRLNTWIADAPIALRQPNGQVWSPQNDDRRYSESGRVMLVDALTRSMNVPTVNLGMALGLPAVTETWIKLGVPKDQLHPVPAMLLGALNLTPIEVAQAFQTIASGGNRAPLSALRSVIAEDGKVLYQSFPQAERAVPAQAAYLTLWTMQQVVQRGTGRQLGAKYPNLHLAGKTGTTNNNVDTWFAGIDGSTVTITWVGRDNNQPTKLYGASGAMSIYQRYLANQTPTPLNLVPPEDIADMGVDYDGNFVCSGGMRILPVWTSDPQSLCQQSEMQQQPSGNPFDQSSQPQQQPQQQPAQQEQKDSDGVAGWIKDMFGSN

B1: LpoB (natural protein, E. coli)
chain: VGQREPAPVEEVKPAPEQPAEPQQPVPTVPSVPTIPQQPGPIEHEDQTAPPAPHIRHYDWNGAMQPMVSKMLGADGVTAGSVLLVDSVNNRTNGSLNAAEATETLRNALANNGKFTLVSAQQLSMAKQQLGLSPQDSLGTRSKAIGIARNVGAHYVLYSSASGNVNAPTLQMQLMLVQTGEIIWSGKGAVSQQ
notes: LpoB, E. coli; also called lipoprotein LpoB; source: E. coli BL21(DE3), purified (HisTrap, Superdex 200), as in Egan et al. 2014
Kd (PBP1B P162C/I644C): 182 nM | Kd (PBP1B I202F): 17 nM | Kd (PBP1B R157A): 357 nM
